We go through seven proteins from FireProtDB.

The conditions of the data set: whole UniProt chain shown.
Setting [1] is: Bos taurus, pH 2, Thermal, CD, KCl-HCl 0.1 M, reversible: yes.
Where [2] appears, read: Bos taurus, pH 2, Thermal, CD, Sodium phosphate 0.2 M, reversible: yes.
Setting [3] is: Bos taurus, pH 2, Thermal, DSC, KCl-HCl 0.1 M, reversible: yes.
[4] abbreviates: Bos taurus, pH 6.2, 25 °C, 2-Propanol, CD, Piperazine Unknown, NaCl 30 mM, transition: 2, reversible: Yes.
Setting [5] is: Bacillus subtilis (strain 168), pH 6, 27 °C, Thermal, CD, sodium phosphate 50 mM, reversible: yes.
Where [6] appears, read: Bacillus amyloliquefaciens, pH 6, 25 °C, GdnHCl, Fluorescence, MES 50 mM, CaCl2 5 mM, reversible: no.
The mark [7] stands for this setting: Bacillus amyloliquefaciens, pH 7.5, Thermal, fluorescence, Pipes 10 mM, transition: 2.
Where [8] appears, read: Bos taurus, pH 5, Thermal, CD, Tris-acetate 0.01 M, reversible: yes.
The mark [9] stands for this setting: Bos taurus, pH 8.4, Thermal, CD, Tris-acetate 0.01 M, reversible: no.

“And” between values parts separate entries of the source, which are not always exact repeats. Equal values may be shown once.

B1: Beta-lactoglobulin wild type, P02754 (protein)
chain: MKCLLLALALTCGAQALIVTQTMKGLDIQKVAGTWYSLAMAASDISLLDAQSAPLRVYVEELKPTPEGDLEILLQKWENGECAQKKIIAEKTKIPAVFKIDALNENKVLVLDTDYKKYLLFCMENSAEPEQSLACQCLVRTPEVDDEALEKFDKALKALPMHIRLSFNPTQLEEQCHI
As a reminder, the Tm is the temperature at the midpoint of the melting transition. B1: the Tm reads like this: under setting [1], 78 °C; under setting [2], 91 °C; under setting [3], 77.8 °C; (Bos taurus, pH 3, Thermal, DSC, phosphate 20 mM, reversible: yes) 77 °C. Moreover, the “heat capacity change of unfolding” value stood at 1.33 kcal/mol/K under setting [1], 1.35 kcal/mol/K under setting [2] and 1.33 kcal/mol/K under setting [3]. The “unfolding enthalpy (van 't Hoff)” value is, setting by setting: under setting [1], 74.6 kcal/mol; under setting [2], 88.8 kcal/mol. The “unfolding enthalpy (calorimetric)” value under setting [3] came to 74.7 kcal/mol. The denaturant m value under setting [4] was 0.9 kcal/mol/M. Moreover, the “denaturant midpoint (higher = more stable)” value under setting [4] stood at 4 M. In addition, the unfolding free energy was 3.8 kcal/mol under setting [4]; 6.99 kcal/mol (Bos taurus, pH 6.85, 25 °C, Urea, CD, Phosphate 0.01 M, chloride 0.2 M); 9.79 kcal/mol (Bos taurus, pH 6.85, 25 °C, Urea, CD, Phosphate 0.01 M, citrate 0.2 M); 9.18 kcal/mol (Bos taurus, pH 6.85, 25 °C, Urea, CD, Phosphate 0.01 M, phosphate 0.2 M); 8.8 kcal/mol (Bos taurus, pH 6.85, 25 °C, Urea, CD, Phosphate 0.01 M, sulfate 0.2 M); 7.58 kcal/mol (Bos taurus, pH 6.85, 25 °C, Urea, CD, Phosphate 0.01 M, tartrate 0.2 M). For the setting “Bos taurus, pH 7.1, 30 °C, GdnHCl, CD, phosphate 0.11 M, NaCl 0.04 M”, the unfolding free energy was 11.2 kcal/mol.

B2: Chemotaxis protein CheY wild type, P24072 (protein)
chain: MAHRILIVDDAAFMRMMIKDILVKNGFEVVAEAENGAQAVEKYKEHSPDLVTMDITMPEMDGITALKEIKQIDAQARIIMCSAMGQQSMVIDAIQAGAKDFIVKPFQADRVLEAINKTLN
Take B2: under setting [5], the “heat capacity change of unfolding” value amounted to 2.34 kcal/mol/K and the unfolding free energy amounted to 3.14 kcal/mol. The Tm (Bacillus subtilis (strain 168), pH 6, Thermal, CD, sodium phosphate 50 mM, reversible: yes) was 54.9 °C.

B3: Beta-glucanase wild type, P07980 (protein)
chain: MKRVLLILVTGLFMSLCGITSSVSAQTGGSFFEPFNSYNSGLWQKADGYSNGDMFNCTWRANNVSMTSLGEMRLALTSPSYNKFDCGENRSVQTYGYGLYEVRMKPAKNTGIVSSFFTYTGPTEGTPWDEIDIEFLGKDTTKVQFNYYTNGAGNHEKFADLGFDAANAYHTYAFDWQPNSIKWYVDGQLKHTATTQIPAAPGKIMMNLWNGTGVDDWLGSYNGVNPIYAHYDWMRYRKK
Regarding B3, under setting [6], the “denaturant midpoint (higher = more stable)” value was 2.73 M and 2.84 M; the unfolding free energy is 12.9 kcal/mol and 4.97 kcal/mol.

B4: FMN-dependent NADPH-azoreductase wild type, O07529 (protein)
chain: MNMLVINGTPRKHGRTRIAASYIAALYHTDLIDLSEFVLPVFNGEAEQSELLKVQELKQRVTKADAIVLLSPEYHSGMSGALKNALDFLSSEQFKYKPVALLAVAGGGKGGINALNNMRTVMRGVYANVIPKQLVLDPVHIDVENATVAENIKESIKELVEELSMFAKAGNPGV
Turning to B4, for the setting “Bacillus subtilis (strain 168), pH 7.5, Thermal, CD, Tris-HCl 100 mM, reversible: No”, the Tm was 86.5 °C.

B5: Subtilisin BPN' wild type, P00782 (protein)
chain: MRGKKVWISLLFALALIFTMAFGSTSSAQAAGKSNGEKKYIVGFKQTMSTMSAAKKKDVISEKGGKVQKQFKYVDAASATLNEKAVKELKKDPSVAYVEEDHVAHAYAQSVPYGVSQIKAPALHSQGYTGSNVKVAVIDSGIDSSHPDLKVAGGASMVPSETNPFQDNNSHGTHVAGTVAALNNSIGVLGVAPSASLYAVKVLGADGSGQYSWIINGIEWAIANNMDVINMSLGGPSGSAALKAAVDKAVASGVVVVAAAGNEGTSGSSSTVGYPGKYPSVIAVGAVDSSNQRASFSSVGPELDVMAPGVSIQSTLPGNKYGAYNGTSMASPHVAGAAALILSKHPNWTNTQVRSSLENTTTKLGDSFYYGKGLINVQAAAQ
Regarding B5, the unfolding free energy (Bacillus amyloliquefaciens, pH 5, 20 °C, Thermal, DSC, Sodium acetate 100 mM, reversible: yes) worked out at 2.1 kcal/mol. For the same protein, the melting temperature (Tm) is, setting by setting: (Bacillus amyloliquefaciens, pH 7, Thermal, CD, KPO4 100 mM) 65 °C; under setting [7], 53.9 °C and 56.8 °C; (Bacillus amyloliquefaciens, pH 8, Thermal, DSC, Tris-HCl 50 mM, CaCl2 10 mM, reversible: no) 78.3 °C; (Bacillus amyloliquefaciens, pH 8, Thermal, DSC, Tris-HCl 50 mM, KCl 50 mM) 58.9 °C. The “unfolding enthalpy (calorimetric)” value under setting [7] is 55.8 kcal/mol and 56.7 kcal/mol.

B6: Seminal ribonuclease wild type, P00669 (protein)
chain: MALKSLVVLPLLVLVLLLVRVQPSLGKESAAAKFERQHMDSGNSPSSSSNYCNLMMCCRKMTQGKCKPVNTFVHESLADVKAVCSQKKVTCKNGQTNCYQSKSTMRITDCRETGSSKYPNCAYKTTQVEKHIIVACGGKPSVPVHFDASV
As for B6, the Tm under setting [8] was determined as 61.6 °C and the Tm under setting [9] was determined as 65.2 °C. Further, the “unfolding enthalpy (van 't Hoff)” value runs as follows: under setting [8], 151 kcal/mol; under setting [9], 199 kcal/mol.

B7: 3-isopropylmalate dehydrogenase wild type, P05645 (protein)
chain: MKKRIALLPGDGIGPEVLESATDVLKSVAERFNHEFEFEYGLIGGAAIDEHHNPLPEETVAACKNADAILLGAVGGPKWDQNPSELRPEKGLLSIRKQLDLFANLRPVKVFESLSDASPLKKEYIDNVDFVIVRELTGGLYFGQPSKRYVNTEGEQEAVDTLFYKRTEIERVIREGFKMAAARKGKVTSVDKANVLESSRLWREVAEDVAQEFPDVKLEHMLVDNAAMQLIYAPNQFDVVVTENMFGDILSDEASMLTGSLGMLPSASLSSSGLHLFEPVHGSAPDIAGKGMANPFAAILSAAMLLRTSFGLEEEAKAVEDAVNKVLASGKRTRDLARSEEFSSTQAITEEVKAAIMSENTISNV
For the protein B7, the Tm (Bacillus subtilis (strain 168), pH 7.6, Thermal, CD, Potassium phosphate 20 mM, reversible: yes) worked out at 56 °C.
